From publication PMC10786891, “Massively parallel profiling of RNA-targeting CRISPR-Cas13d”
Positions count from the first letter of the chain named. Names may count otherwise.

B1: target 1 insA 3' of 13,insG 3' of 10 (mixed)
RNA 1: CACCCGUGCAAAAAUGCAGGGGUCUAAAACUGAGCGGAUAACCUCUCUAUGG
RNA 2: GGGAAUGGAUCCACAUCUACGAAUUCGUACCAUAGAGAGAGUUGAUCCGCUCACCGAGAUCGGAAGAGCACACGU
B2: target 1 C7G,G15U (mixed)
RNA 1: B1 RNA 1
RNA 2: GGGAAUGGAUCCACAUCUACGAAUUCGUACCAUAGAUAGGUUAUGCGCUCACCGAGAUCGGAAGAGCACACGU
B3: target 1 insA 3' of 3 (mixed)
RNA 1: B1 RNA 1
RNA 2: GGGAAUGGAUCCACAUCUACGAAUUCGUACCAUAGAGAGGUUAUCCGCUACACCGAGAUCGGAAGAGCACACGU
B4: target 1 insC 3' of 14,insG 3' of 8 (mixed)
RNA 1: B1 RNA 1
RNA 2: B1 RNA 2 with G39C, A40G, G44A, A45U, U46G
B5: target 1 insU 3' of 17,insA 3' of 11 (mixed)
RNA 1: B1 RNA 1
RNA 2: B1 RNA 2 with A36U, G37A, A38G, G39A, A40G, U43A, G44U
B6: target 1 A1C,U10A (mixed)
RNA 1: B1 RNA 1
RNA 2: B2 RNA 2 with U37G, U42A, G45C, A51C
B7: target 1 U8G,A9C (mixed)
RNA 1: B1 RNA 1
RNA 2: B2 RNA 2 with U37G, A43C, U44G, G45C
B8: target 1 del2,del13 (mixed)
RNA 1: B1 RNA 1
RNA 2: GGGAAUGGAUCCACAUCUACGAAUUCGUACCAUAGAGAGUUAUCCGCUACCGAGAUCGGAAGAGCACACGU
B9: target 1 insG 3' of 7,insU 3' of 6 (mixed)
RNA 1: B1 RNA 1
RNA 2: B1 RNA 2 with A40G, G41U, U43A, G44U, A45C, U46G, C48U
B10: target 1 insU 3' of 9,insA 3' of 3 (mixed)
RNA 1: B1 RNA 1
RNA 2: GGGAAUGGAUCCACAUCUACGAAUUCGUACCAUAGAGAGGUUAUUCCGCUACACCGAGAUCGGAAGAGCACACGU
B11: target 1 insG 3' of 16,insA 3' of 11 (mixed)
RNA 1: B1 RNA 1
RNA 2: B1 RNA 2 with A38G, G39A, A40G, U43A, G44U
B12: target 1 insA 3' of 21,insG 3' of 1 (mixed)
RNA 1: B1 RNA 1
RNA 2: GGGAAUGGAUCCACAUCUACGAAUUCGUACCAAUAGAGAGGUUAUCCGCUCAGCCGAGAUCGGAAGAGCACACGU
B13: target 1 U10A (mixed)
RNA 1: B1 RNA 1
RNA 2: B2 RNA 2 with U37G, U42A, G45C
B14: target 1 C7A,A9C (mixed)
RNA 1: B1 RNA 1
RNA 2: B2 RNA 2 with U37G, A43C, G45A
B15: target 1 A16G,C21A (mixed)
RNA 1: B1 RNA 1
RNA 2: B2 RNA 2 with C31A, A36G, U37G, G45C
B16: target 1 complement block 7-11 (mixed)
RNA 1: B1 RNA 1
RNA 2: B2 RNA 2 with U37G, U41A, U42A, A43U, U44A
B17: target 1 insG 3' of 18,insU 3' of 2 (mixed)
RNA 1: B1 RNA 1
RNA 2: B12 RNA 2 with A33U, U34A, A35G, A52U, G53A
B18: target 1 insC 3' of 12,insA 3' of 7 (mixed)
RNA 1: B1 RNA 1
RNA 2: B1 RNA 2 with A40G, G41C, G44A, A45U, U46C, C47A
B19: target 1 insC 3' of 5,insC 3' of 3 (mixed)
RNA 1: B1 RNA 1
RNA 2: B10 RNA 2 with U45C, C47G, G48C, A51C
B20: target 1 U10C,U11G (mixed)
RNA 1: B1 RNA 1
RNA 2: B2 RNA 2 with U37G, U41G, U42C, G45C
B21: target 1 A18U,U19C (mixed)
RNA 1: B1 RNA 1
RNA 2: B2 RNA 2 with U33C, A34U, U37G, G45C
B22: target 1 A1G,U10A (mixed)
RNA 1: B1 RNA 1
RNA 2: B2 RNA 2 with U37G, U42A, G45C, A51G
B23: target 1 C2G,A20U (mixed)
RNA 1: B1 RNA 1
RNA 2: B2 RNA 2 with A32U, U37G, G45C, C50G
B24: target 1 del1,del13 (mixed)
RNA 1: B1 RNA 1
RNA 2: B8 RNA 2 with A49C
B25: target 1 insG 3' of 16,insG 3' of 8 (mixed)
RNA 1: B1 RNA 1
RNA 2: B1 RNA 2 with A38G, G39A, A40G, G44A, A45U, U46G
B26: target 1 insG 3' of 6,insG 3' of 1 (mixed)
RNA 1: B1 RNA 1
RNA 2: B10 RNA 2 with U45C, C47G, A51C, C52A, A53G
B27: target 1 insA 3' of 17,insC 3' of 5 (mixed)
RNA 1: B1 RNA 1
RNA 2: B12 RNA 2 with A33U, U34A, A35G, G36A, U50C, C51U, A52C, G53A
B28: target 1 C7U,G12A (mixed)
RNA 1: B1 RNA 1
RNA 2: B2 RNA 2 with U37G, G40A, G45U

Target: T1, EsCas13d, nuclease-dead (Eubacterium siraeum, UniProt B0MS50, R295A;H300A;R849A;H854A)
T1 sequence: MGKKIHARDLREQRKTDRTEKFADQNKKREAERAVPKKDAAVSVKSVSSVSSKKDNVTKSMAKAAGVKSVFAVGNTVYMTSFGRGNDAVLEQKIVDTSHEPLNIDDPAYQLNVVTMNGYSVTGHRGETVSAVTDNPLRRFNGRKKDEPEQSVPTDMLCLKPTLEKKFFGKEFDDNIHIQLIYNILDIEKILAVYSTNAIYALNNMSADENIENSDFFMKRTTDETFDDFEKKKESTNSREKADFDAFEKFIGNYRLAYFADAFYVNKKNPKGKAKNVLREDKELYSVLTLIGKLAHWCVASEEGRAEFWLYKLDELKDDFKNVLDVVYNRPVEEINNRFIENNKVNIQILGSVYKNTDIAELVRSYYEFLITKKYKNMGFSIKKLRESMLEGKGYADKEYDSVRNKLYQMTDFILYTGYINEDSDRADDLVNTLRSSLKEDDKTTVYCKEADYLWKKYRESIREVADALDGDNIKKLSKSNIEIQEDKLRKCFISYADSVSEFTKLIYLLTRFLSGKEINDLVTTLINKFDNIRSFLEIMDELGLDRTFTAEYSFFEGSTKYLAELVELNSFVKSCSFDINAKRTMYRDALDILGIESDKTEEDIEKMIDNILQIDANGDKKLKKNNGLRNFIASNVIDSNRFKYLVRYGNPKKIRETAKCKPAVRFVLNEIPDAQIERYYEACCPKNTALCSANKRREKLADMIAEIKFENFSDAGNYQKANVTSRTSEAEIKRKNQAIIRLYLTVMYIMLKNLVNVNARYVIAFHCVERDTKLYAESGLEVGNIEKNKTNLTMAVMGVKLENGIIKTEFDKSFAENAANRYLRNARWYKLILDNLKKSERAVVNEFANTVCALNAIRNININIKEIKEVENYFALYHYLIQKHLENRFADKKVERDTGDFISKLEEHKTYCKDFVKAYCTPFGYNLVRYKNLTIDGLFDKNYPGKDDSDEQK
Experiment: crRNA (strand 1, pre-loaded); Mg2+; 40 mM Tris-HCl pH 7.5, 150 mM NaCl, 6 mM MgCl2, 1 mM DTT, 0.1% Tween-20, 0.2 mg/ml BSA; 25 C; 10 min per concentration, then washed
Conditions: tags: His6-TwinStrep-SUMO cleaved; N-terminal SNAP kept (SNAP-Surface 488); label: 3' end held by stalled T7 RNA polymerase

Binder | Kd [nM]
B1 | 7.2 ± 0.5
B2 | 30 ± 4
B3 | 8.8 ± 0.4
B4 | 65 ± 11
B5 | 28 ± 7
B6 | 26.2 ± 2.2
B7 | 11 ± 0.6
B8 | 11.7 ± 0.4
B9 | 8.24 ± 0.34
B10 | 13.1 ± 0.7
B11 | 19.7 ± 1
B12 | 15.5 ± 0.8
B13 | 9.3 ± 0.6
B14 | 13.6 ± 0.9
B15 | 48 ± 11
B16 | 13.3 ± 0.6
B17 | 84 ± 26
B18 | 12.7 ± 0.5
B19 | 22.3 ± 1.8
B20 | 29.2 ± 2.6
B21 | 64 ± 16
B22 | 8.5 ± 0.6
B23 | 39 ± 7
B24 | 25 ± 4
B25 | 23.1 ± 1.9
B26 | 5.7 ± 0.4
B27 | 32.2 ± 2.7
B28 | 6.9 ± 0.4
